From patent US20240035036A1 (UNIVERSITE DE GENEVE, published 2024)

Key:
[1] = target: T1, FljK flagellin protein from Caulobacter crescentus
T1 chain: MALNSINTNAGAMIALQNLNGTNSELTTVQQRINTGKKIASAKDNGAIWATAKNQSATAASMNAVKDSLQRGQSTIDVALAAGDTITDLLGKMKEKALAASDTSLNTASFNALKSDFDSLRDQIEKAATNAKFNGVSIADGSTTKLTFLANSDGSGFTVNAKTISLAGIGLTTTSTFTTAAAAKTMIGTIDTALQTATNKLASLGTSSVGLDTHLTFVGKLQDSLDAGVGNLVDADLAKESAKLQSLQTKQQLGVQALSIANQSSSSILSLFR

[2] = target: T2, Flagellin Modification Protein (FlmG) from Caulobacter crescentus (Caulobacter crescentus, UniProt P21296 1-596); experiment: summary of example 1 (BACTH and domain analysis)
T2 construct: Natural full-length glycosyltransferase, expressed in cells (C. crescentus, S. fredii NGR234, E. coli); It has an N-terminal TPR domain and a C-terminal GT-B-like glycosyltransferase domain; also called FlbA; CC_1457
T2 sequence: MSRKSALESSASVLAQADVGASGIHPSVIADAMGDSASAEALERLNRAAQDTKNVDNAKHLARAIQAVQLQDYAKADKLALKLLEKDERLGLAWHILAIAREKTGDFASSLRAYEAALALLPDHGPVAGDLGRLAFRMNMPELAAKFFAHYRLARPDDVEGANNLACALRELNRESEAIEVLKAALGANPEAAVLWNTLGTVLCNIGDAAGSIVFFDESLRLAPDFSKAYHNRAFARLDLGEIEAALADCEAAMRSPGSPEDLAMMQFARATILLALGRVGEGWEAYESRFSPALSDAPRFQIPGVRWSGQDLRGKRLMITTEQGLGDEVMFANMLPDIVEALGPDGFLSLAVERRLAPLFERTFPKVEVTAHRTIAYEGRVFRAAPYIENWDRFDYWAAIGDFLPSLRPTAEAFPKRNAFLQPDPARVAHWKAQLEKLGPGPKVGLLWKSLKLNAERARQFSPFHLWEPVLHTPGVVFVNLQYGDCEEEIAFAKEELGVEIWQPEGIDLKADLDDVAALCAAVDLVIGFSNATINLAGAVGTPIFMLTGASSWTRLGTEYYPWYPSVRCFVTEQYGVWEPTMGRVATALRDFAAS

B1: Flagellin Modification Protein (FlmG) from Caulobacter crescentus (protein)
chain: MSRKSALESSASVLAQADVGASGIHPSVIADAMGDSASAEALERLNRAAQDTKNVDNAKHLARAIQAVQLQDYAKADKLALKLLEKDERLGLAWHILAIAREKTGDFASSLRAYEAALALLPDHGPVAGDLGRLAFRMNMPELAAKFFAHYRLARPDDVEGANNLACALRELNRESEAIEVLKAALGANPEAAVLWNTLGTVLCNIGDAAGSIVFFDESLRLAPDFSKAYHNRAFARLDLGEIEAALADCEAAMRSPGSPEDLAMMQFARATILLALGRVGEGWEAYESRFSPALSDAPRFQIPGVRWSGQDLRGKRLMITTEQGLGDEVMFANMLPDIVEALGPDGFLSLAVERRLAPLFERTFPKVEVTAHRTIAYEGRVFRAAPYIENWDRFDYWAAIGDFLPSLRPTAEAFPKRNAFLQPDPARVAHWKAQLEKLGPGPKVGLLWKSLKLNAERARQFSPFHLWEPVLHTPGVVFVNLQYGDCEEEIAFAKEELGVEIWQPEGIDLKADLDDVAALCAAVDLVIGFSNATINLAGAVGTPIFMLTGASSWTRLGTEYYPWYPSVRCFVTEQYGVWEPTMGRVATALRDFAAS
**Q.** For B1, which “FljK glycosylation (migration on anti-FljK immunoblot) in E. coli co-expressing FljK, FlmG and the synthetic flm operon” value [1] is on record?
**A.** The value was “in the presence of pUCITD-flm FljK migration is shifted towards higher molecular weight, as in Caulobacter crescentus wild-type (WT) cells”.

**Q.** What about the “flagellin modification (SDS-PAGE mobility shift of FljK by immunoblot) on co-expression in S. fredii NGR234” value [1] of the same binder?
**A.** Its value is “upon co-expression of FlmG, FljK shifted to a species with higher molecular mass”.

B2: FljK flagellin protein from Caulobacter crescentus (other)
chain: MALNSINTNAGAMIALQNLNGTNSELTTVQQRINTGKKIASAKDNGAIWATAKNQSATAASMNAVKDSLQRGQSTIDVALAAGDTITDLLGKMKEKALAASDTSLNTASFNALKSDFDSLRDQIEKAATNAKFNGVSIADGSTTKLTFLANSDGSGFTVNAKTISLAGIGLTTTSTFTTAAAAKTMIGTIDTALQTATNKLASLGTSSVGLDTHLTFVGKLQDSLDAGVGNLVDADLAKESAKLQSLQTKQQLGVQALSIANQSSSSILSLFR
notes: In the glycosylation experiments it was expressed unfused in cells; also called CC_1461
**Q.** Does B2 bind [2]?
**A.** Result: binds
